Measurements taken from patent US20260083845A1 (CELLICURE, published 2026).

T1: NKG2D (natural receptor on NK cells) (human, UniProt P26718 1-216)
T1 construct: whole, on cells; also called NKG2D receptors; natural NKG2D
T1 sequence (looked up): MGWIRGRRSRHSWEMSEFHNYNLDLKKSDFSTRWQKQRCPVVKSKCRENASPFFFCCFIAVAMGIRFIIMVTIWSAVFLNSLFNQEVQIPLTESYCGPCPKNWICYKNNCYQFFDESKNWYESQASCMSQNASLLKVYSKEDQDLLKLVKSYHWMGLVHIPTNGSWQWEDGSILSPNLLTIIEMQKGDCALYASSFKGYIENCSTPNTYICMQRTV

T2: NKG2D-GFP (human, UniProt P26718 1-216)
T2 construct: whole, on cells; NKG2D-GFP expressed in NK cells for the PLA between GFP and DAP10; also called natural NKG2D; not shown: GFP
T2 sequence (looked up): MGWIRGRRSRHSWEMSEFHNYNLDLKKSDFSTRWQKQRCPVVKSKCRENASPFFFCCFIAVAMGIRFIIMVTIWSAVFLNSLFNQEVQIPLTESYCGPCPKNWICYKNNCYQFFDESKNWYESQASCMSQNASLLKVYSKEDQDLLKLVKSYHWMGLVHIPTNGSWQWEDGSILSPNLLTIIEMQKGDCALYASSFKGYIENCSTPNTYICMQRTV

B1: DNAX-Activation Protein 10 (DAP10) (other, human, UniProt Q9UBK5 19-93, looked up)
chain: QTTPGERSSLPAFYPGTSGSCSGCGSLSLPLLAGLVAADAVASLLIVGAVFLCARPRRSPAQEDGKVYINMPGRG
notes: whole, on cells; Endogenous DAP10 of the NK cells, detected with anti-DAP10 (mouse IgG) in the PLA

Assays:
[1] = target: B1; experiment: Duolink proximity ligation assay (anti-GFP + anti-DAP10) in NK cells stimulated by 293T-CD19-MICA, confocal microscopy
Method: (§1) PLA assays were performed using the in situ Duolink PLA red kit (Sigma-Aldrich) according to the manufacturer's instructions. The CAR0, an empty vector with GFP expression, or CAR2-GFP fusion expressing NK cells were attached to the poly-l-lysine glass, target cells were then added and incubated at 37° C. for 30 minutes. Unattached cells were removed by washing with PBS. slides were fixed and stained with anti-GFP (Rabbit IgG) and anti-DAP10 (Mouse IgG), washed, and stained with anti-rabbit and anti-mouse PLA probes, followed by probe DNA ligation, amplification, Fluorescent staining were then performed and observed using confocal microscopy,
(§2) NKG2D receptor has no intracellular signaling domain, it recruits adaptor DNAX-Activation Protein 10 (DAP10) to transfer signals via YxxM motif (Eagle et al. (2009) Beyond Stressed Self: Evidence for NKG2D Ligand Expression on Healthy Cells. Curr Immunol Rev. 5(1):22-34). […] DAP10 was recruited to the CAR2 effectively stimulating by CD19.

[2] = target: T1, NKG2D (natural receptor on NK cells); experiment: Duolink proximity ligation assay NKG2D+DAP10, counted PLA signals, CAR-NK cells stimulated by 293T-MICA
[3] = target: T2, NKG2D-GFP; experiment: Duolink proximity ligation assay (anti-GFP + anti-DAP10) in NKG2D-GFP expressing NK cells with CAR0 or CAR2, stimulated by 293T-CD19-MICA, confocal microscopy
Method: as §1, §2

| Binder | binding result [1] | binding result [2] | binding result [3] |
| --- | --- | --- | --- |
| CAR2-GFP fusion (NKG2D CAR: anti-CD19 ScFv-CD8 hinge-NKG2D TM-2B4 ICD-CD3zeta, fused to GFP) (receptor, Expressed in NK cells for the Duolink PLA; not shown: GFP) EVKLQQSGAELVRPGSSVKISCKASGYAFSSYWMNWVKQRPGQGLEWIGQIYPGDGDTNYNGKFKGQATLTADKSSSTAYMQLSGLTSEDSAVYFCARKTISSVVDFYFDYWGQGTTVTVSSGGGGSGGGGSGGGGSDIELTQSPKFMSTSVGDRVSVTCKASQNVGTNVAWYQQKPGQSPKPLIYSATYRNSGVPDRFTGSGSGTDFTLTITNVQSKDLADYFCQQYNRYPYTSGGGTKLEIKPAKPTTTPAPRPPTPAPTIASQPLSLRPEACRPAAGGAVHTRGLDFACDPFFFCCFIAVAMGIRFIIMVTWRRKRKEKQSETSPKEFLTIYEDVKDLKTRRNHEQEQTFPGGGSTIYSMIQSQSSAPTSQEPAYTLYSLIQPSRKSGSRKRNHSPSFNSTIYEVIGKSQPKAQNPARLSRKELENFDVYSSFGLLDPKLCYLLDGILFIYGVILTALFLRVKFSRSADAPAYQQGQNQLYNELNLGRREEYDVLDKRRGRDPEMGGKPRRKNPQEGLYNELQKDKMAEAYSEIGMKGERRRGKGHDGLYQGLSTATKDTYDALHMQALPPR | binds | – | – |
| B1 | – | binds | binds |
